One experiment deals with HLA-A11 (human). Briefly: assembly assay: stabilisation of 35S-labelled HLA-A11 from TAP-deficient cell lysate, W6/32 immunoprecipitation, IEF gel. Conditions: remark: other sources report otherwise.
A further experiment addresses HLA-B7 (human). Briefly: assembly assay for peptide binding to MHC class I (HLA-B7).

B1: Sur 54-62 (peptide)
peptide: LAQCFFCFK
In turn, B1 returned a C50 in the experiment with HLA-A11 (human) of 0.4 µM.

B2: C7 (peptide)
peptide: RPPIFIRRL
modifications: not checked
In the case of B2, the C50 with HLA-B7 (human) worked out at 0.5 µM.

B3: C6 (peptide)
peptide: QPRAPIRPI
modifications: not checked
In the experiment with HLA-B7 (human), B3 returned a C50 of 0.1 µM.

Source of the values: patent US20040176573A1.
